Test results from patent US20230106083A1, “SILICON-FLUORIDE HETEROAROMATIC SYSTEMS FOR APPLICATIONS IN POSITRON EMISSION TOMOGRAPHY (PET) MOLECULAR IMAGING” (The Regents of the University of California, priority 2019, published 2023).
Like-named read-outs stand apart in the source and are kept apart here.

Key:
[1] = Stability screen of HetSiFA [^18F]-12 in acetonitrile (RCC by radio-TLC over time); type: physicochemical; conditions: room temperature, 1.8 mg (9.4 μmol) Et4NHCO3 used for elution
Protocol: Isotopic exchange reactions were conducted in 1 mL Eppendorf tube containing hetroarylfluorosilanes 1 in dry acetonitrile (3 mM stock solution, 50 μL). […] An aliquot of the crude reaction mixture was spotted on a silica gel coated TLC plate, developed in a glass chamber using [^18F]fluoride Het Si tBu tBu F Het Si tBu tBu ^18F Et4NHCO3 CH3CN, 23° C. 1 [^18F]-1 S15 acetonitrile (100%) or acetonitrile:water (95:5) as the eluent and analyzed by radio-TLC using a miniGITA*TLC scanner. The radiochemical conversion (RCC) was calculated by dividing the integrated area of the ^18F-fluorinated product peak by the total integrated area of all peaks on the TLC and multiplying by 100 to convert to percentage units. Isotopic exchange and purity was confirmed by analytical HPLC by co-injecting with the 19F-reference standard (UV absorbance at 254 nm). An aliquot of the crude reaction mixture (10 μL) was added to the 19F-reference standard (1 mg/mL) in acetonitrile (10 μL) and the sample was injected into the analytical HPLC.
[^18F]TEAF was obtained by eluting fluoride ion with high base or low base, following the protocol described above.

[2] = MicroPET/CT biodistribution of [^18F]-17 in normal mice (ROI quantification); type: in vivo, C57BL6 mice; conditions: for tissue uptake at 1 h / tissue uptake at 2 h: C57BL/6, mouse; for tissue uptake at 2 h: 2 h post-injection
Protocol: Micropositron emission tomography-computed tomography (microPET/CT) imaging studies were performed in normal mice to investigate the in vivo stability of the silicon-fluorine bond in the Heteroaromatic silicon fluoride acceptor peptide conjugate, [^18F]-17. Reformulated [^18F]-17 (2.2 MBq) was injected via the tail vein into C57BL/6 mice (n=3), and microPET/CT scans were acquired. […] Alternatively, the GI activity may also be a result of this particular peptide, for which the full cholecystokinin construct plays important roles in stimulating digestion within the GI system.
Animal studies were approved by the UCLA Animal Research Committee and carried out according to the guidelines of the Department of Laboratory Animal Medicine at UCLA. Female C57BL6 mice were injected intravenously via tail vein with approximately 2.2 MBq (60 μCi) of [^18F]-17. Animals were kept warm on heating pads throughout the imaging procedures. At 1 and 2 h after tracer injection, mice were anesthetized with 2% isoflurane in oxygen and placed in dedicated Genisys8 imaging chambers for PET/CT imaging on the Genisys8 PET/CT (Sofie Biosciences). PET scans were acquired for 10 min with an energy window of 150-650 keV reconstructed using ML-EM, followed by CT acquisition. All PET images were corrected for CTbased photon attenuation, detector normalization and radioisotope decay (scatter correction was not applied) and converted to units of percent injected dose per gram (% ID/g). Images were analyzed by drawing regions-of-interest (ROI) in select tissues using AMIDE v1.0.5. See e.g. Loening et al., Mol. Imaging 2003, 3, 131.

CC(C)(C)[Si](F)(c1cc2cccc(C(=O)O)c2s1)C(C)(C)C [[^18F]-12, 2-(di-tertbutylfluorosilyl) benzo[b]thiophene-7-carboxylic acid]
RCC (stability screen) ([1]; 2 min): 95% | RCC (stability screen) ([1]; 5 min): 96% | RCC (stability screen) ([1]; 15 min): 97% | RCC (stability screen) ([1]; 30 min): 97% | RCC (stability screen) ([1]; 60 min): 97%

CSCC[C@H](NC(=O)[C@H](Cc1c[nH]c2ccccc12)NC(=O)CN1CCN(CC(=O)O)CCN(CC(=O)O)CCN(CC(=O)O)CC1)C(=O)N[C@@H](CC(=O)NCCOCCOCCOCCNC(=O)c1cccc2cc([Si](F)(C(C)(C)C)C(C)(C)C)sc12)C(=O)N[C@@H](Cc1ccccc1)C(N)=O [[^18F]-17]
Biodistribution, Muscle ([2]; PET quantification, 1 h post-injection, i.v. tail vein, C57BL6 mice): 0.36 % ID/g | tissue uptake at 1 h ([2]; female, GI tract, iv, 2.2 MBq, total radioactivity, PET quantification, 1 h post-injection, i.v. tail vein, C57BL6 mice, read-out: Biodistribution, GI): 107 ± 24 %ID/g | tissue uptake at 2 h ([2]; female, GI tract, iv, 2.2 MBq, total radioactivity, PET quantification, i.v. tail vein, C57BL6 mice, read-out: Biodistribution, GI): 122 ± 48 %ID/g | tissue uptake at 1 h ([2]; female, bladder, iv, 2.2 MBq, total radioactivity, PET quantification, 1 h post-injection, i.v. tail vein, C57BL6 mice, read-out: Biodistribution, Bladder): 35 ± 12 %ID/g | tissue uptake at 2 h ([2]; female, bladder, iv, 2.2 MBq, total radioactivity, PET quantification, i.v. tail vein, C57BL6 mice, read-out: Biodistribution, Bladder): 30 ± 7 %ID/g | tissue uptake at 1 h ([2]; female, bone (knee), iv, 2.2 MBq, total radioactivity, PET quantification, 1 h post-injection, i.v. tail vein, C57BL6 mice, read-out: Biodistribution, Bone (knee)): 8 ± 0.65 %ID/g | tissue uptake at 2 h ([2]; female, bone (knee), iv, 2.2 MBq, total radioactivity, PET quantification, i.v. tail vein, C57BL6 mice, read-out: Biodistribution, Bone (knee)): 8.2 ± 0.56 %ID/g | tissue uptake at 1 h ([2]; female, brain, iv, 2.2 MBq, total radioactivity, PET quantification, 1 h post-injection, i.v. tail vein, C57BL6 mice, read-out: Biodistribution, Brain): 0.44 ± 0.06 %ID/g | tissue uptake at 2 h ([2]; female, brain, iv, 2.2 MBq, total radioactivity, PET quantification, i.v. tail vein, C57BL6 mice, read-out: Biodistribution, Brain): 0.33 ± 0.03 %ID/g | tissue uptake at 1 h ([2]; female, gallbladder, iv, 2.2 MBq, total radioactivity, PET quantification, 1 h post-injection, i.v. tail vein, C57BL6 mice, read-out: Biodistribution, Gallbladder): 33 ± 14 %ID/g | tissue uptake at 2 h ([2]; female, gallbladder, iv, 2.2 MBq, total radioactivity, PET quantification, i.v. tail vein, C57BL6 mice, read-out: Biodistribution, Gallbladder): 28 ± 9 %ID/g | tissue uptake at 1 h ([2]; female, heart, iv, 2.2 MBq, total radioactivity, PET quantification, 1 h post-injection, i.v. tail vein, C57BL6 mice, read-out: Biodistribution, Heart): 2 ± 0.25 %ID/g | tissue uptake at 2 h ([2]; female, heart, iv, 2.2 MBq, total radioactivity, PET quantification, i.v. tail vein, C57BL6 mice, read-out: Biodistribution, Heart): 1.2 ± 0.26 %ID/g | tissue uptake at 1 h ([2]; female, kidney, iv, 2.2 MBq, total radioactivity, PET quantification, 1 h post-injection, i.v. tail vein, C57BL6 mice, read-out: Biodistribution, Kidney): 2.9 ± 0.62 %ID/g | tissue uptake at 2 h ([2]; female, kidney, iv, 2.2 MBq, total radioactivity, PET quantification, i.v. tail vein, C57BL6 mice, read-out: Biodistribution, Kidney): 2.2 ± 0.38 %ID/g | tissue uptake at 1 h ([2]; female, liver, iv, 2.2 MBq, total radioactivity, PET quantification, 1 h post-injection, i.v. tail vein, C57BL6 mice, read-out: Biodistribution, Liver): 5 ± 0.07 %ID/g | tissue uptake at 2 h ([2]; female, liver, iv, 2.2 MBq, total radioactivity, PET quantification, i.v. tail vein, C57BL6 mice, read-out: Biodistribution, Liver): 2.4 ± 0.47 %ID/g | tissue uptake at 1 h ([2]; female, muscle, iv, 2.2 MBq, total radioactivity, PET quantification, 1 h post-injection, i.v. tail vein, C57BL6 mice, read-out: Biodistribution, Muscle): 0.36 ± 0.06 %ID/g | tissue uptake at 2 h ([2]; female, muscle, iv, 2.2 MBq, total radioactivity, PET quantification, i.v. tail vein, C57BL6 mice, read-out: Biodistribution, Muscle): 0.27 ± 0.11 %ID/g | tissue uptake ([2]; female, mouse, bone, iv, 2.2 MBq, total radioactivity, FIG. 6, time not given, C57BL/6 mice): 8 %ID/g | clearance route ([2]; microPET/CT images, C57BL/6 mice, 2.2 MBq via tail vein): initial clearance of [^18F]-17 via the kidneys, followed by the reabsorption of radiometabolites and the subsequent hepatobiliary clearance | plasma clearance ([2]; microPET/CT, C57BL/6 mice, 2.2 MBq via tail vein): rapid plasma clearance
